Experiments:
ACKR4-HA (human) [1] = molecular target: T1, ACKR4-HA (human) (UniProt Q9NPB9)
T1 sequence: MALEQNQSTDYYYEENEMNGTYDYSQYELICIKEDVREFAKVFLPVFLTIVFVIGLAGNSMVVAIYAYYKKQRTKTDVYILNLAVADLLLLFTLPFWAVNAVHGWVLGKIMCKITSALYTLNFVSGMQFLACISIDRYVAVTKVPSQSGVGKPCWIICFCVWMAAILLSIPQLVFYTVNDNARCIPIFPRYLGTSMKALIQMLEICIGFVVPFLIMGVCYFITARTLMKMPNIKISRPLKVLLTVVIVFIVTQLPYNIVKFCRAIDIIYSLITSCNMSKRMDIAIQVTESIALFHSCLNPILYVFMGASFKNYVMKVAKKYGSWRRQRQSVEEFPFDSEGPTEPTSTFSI

ACKR4-HA (human) [2] = molecular target: T1, ACKR4-HA (human); remark: listed apart in the source

smBiT-βarrestin1, sequence (P49407 whole entry): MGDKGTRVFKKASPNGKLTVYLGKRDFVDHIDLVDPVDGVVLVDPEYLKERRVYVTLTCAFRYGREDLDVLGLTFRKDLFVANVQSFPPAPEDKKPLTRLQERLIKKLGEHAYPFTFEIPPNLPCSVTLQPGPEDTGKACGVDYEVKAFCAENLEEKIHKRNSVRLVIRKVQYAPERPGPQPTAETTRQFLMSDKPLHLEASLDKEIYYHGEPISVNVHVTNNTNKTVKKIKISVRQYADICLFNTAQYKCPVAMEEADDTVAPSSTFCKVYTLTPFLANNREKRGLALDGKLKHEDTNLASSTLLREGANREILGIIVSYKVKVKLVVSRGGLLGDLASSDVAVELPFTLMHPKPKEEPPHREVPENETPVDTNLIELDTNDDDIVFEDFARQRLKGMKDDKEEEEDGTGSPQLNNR
smBiT-βarrestin2, sequence (P32121 whole entry): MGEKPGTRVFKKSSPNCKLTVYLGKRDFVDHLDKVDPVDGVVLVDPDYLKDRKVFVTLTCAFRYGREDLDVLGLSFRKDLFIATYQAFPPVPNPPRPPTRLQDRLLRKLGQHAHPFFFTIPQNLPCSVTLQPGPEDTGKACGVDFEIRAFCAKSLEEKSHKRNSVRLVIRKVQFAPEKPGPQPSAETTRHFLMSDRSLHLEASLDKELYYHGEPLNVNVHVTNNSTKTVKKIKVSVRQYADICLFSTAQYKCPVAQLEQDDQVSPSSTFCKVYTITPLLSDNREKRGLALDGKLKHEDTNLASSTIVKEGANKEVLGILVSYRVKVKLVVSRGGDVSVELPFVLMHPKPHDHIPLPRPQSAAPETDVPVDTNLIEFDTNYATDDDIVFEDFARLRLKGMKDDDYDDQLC

| bystander NanoBiT (smBiT-βarrestin1 with lgBiT-CAAX) in HEK293: CCL19-driven recruitment to the plasma membrane, as compared to native ACKR4 (% of native ACKR4) (ACKR4-HA (human) [1]) | bystander NanoBiT (smBiT-βarrestin1 with lgBiT-CAAX) in HEK293: pre-association with the plasma membrane in the absence of CCL19, as compared to cells expressing native ACKR4 (times higher than native ACKR4) (ACKR4-HA (human) [2]) | bystander NanoBiT (smBiT-βarrestin2 with lgBiT-CAAX) in HEK293: CCL19-driven recruitment to the plasma membrane, as compared to native ACKR4 (% of native ACKR4) (ACKR4-HA (human) [1]) | bystander NanoBiT (smBiT-βarrestin2 with lgBiT-CAAX) in HEK293: pre-association with the plasma membrane in the absence of CCL19, as compared to cells expressing native ACKR4 (times higher than native ACKR4) (ACKR4-HA (human) [2]) | Substance |
| --- | --- | --- | --- | --- |
| 42 | 2.9 |  |  | smBiT-βarrestin1 (from UniProt P49407 1-418) (natural protein) |
|  |  | 27 | 3.3 | smBiT-βarrestin2 (from UniProt P32121 1-409) (natural protein) |

Source: paper PMC11610291
